# Measured values as given in the DeepSol protein solubility set.
# Test: soluble on expression in E. coli; label from the status in PepcDB or PDB records
row,Sequence,soluble on expression in E. coli
1,MLSTVFLLATLAASAAADGYSCARNTLINPPQDLSKPYYYPETWRENMEPPQYAPNQKCNWKINVPQGMYATVIFYKKTKYEIGIQCAYPGKDLEYINDYEQSPYIFTSPQFQVDLKVGDKPGAFSFKVVWSKYPPGSAMNIELDGIHSISGVASSFYTTYTAINQVMIVGFSVPDVDTNLLRQSAIYDGDSVNAKFLGNLFDALEGQIVSTGNKLTIYTFGLENQVDNTLFMGLDTKAAGDIEQYTGLNCPVDRTRGCSIILHSYFYATAEARISRQPDYLMLPDSFPYNATLKIYGETLQDSSLFAAVNKSNYQTMFPMKVTNSLKIYHLDHDIVSIDVTNNADEAKWSTVYDGRNIKVQSMDYGRTSFYQDTMETFTTEPNTQMYFKFNVKYFDVNGPTSLAIKVYNNAKIVYSETYTATNLPTPYNVRVYGDKMDINYQTFGNYTQGFEVNIVTTKNG,not soluble
2,MGSDKIHHHHHHMPYINVRGVEHYYEWVKQPSGDLVKPVMVFIHGWAGSARYWISTANALSDQFDCLLYDLRGFGRSQGKPTVAQASESVVGADSTQEKSQAIQELTYEIEEYAEDLVVLLDELKLQRVYVNAHSMGASVATMFFNRYPQRVERGILTCSGIFEYDEKAFAAFHKFGGYVVKFRPKWLGKIPLVDRMFMARFLHRPIPKSERKAFLEDFLVADYDTALGTIFTSVSKAQAEVMPQEFAKLQVPTLLVAGEYDQIIPAKMGRQAASLNDKVEFVLIPNTAHFPMLEDAPTYLRRVREFLQVATPELQTS,not soluble
3,MLMFTEKEFAAFEVAGLDERMAVIRAQIQPIFQELDTYFAEQLAPELGTELFVHIAQHRRRTVYPPENTWSALSPNKRGYKMQPHFQLGIWGDYVFMWLSFIDNPKNEKQIAQAFLENQQLFQALPEDTYVSLDHTVPQITPLPETDLEKALTRFRDVKKGEFEIGRIIPKDSDLWQNPEKARAYMLATYQQLLPLYQLAVAQ,not soluble
4,MGHHHHHHSHKWELCPVTIISWLNLFLQVDALKDAPKVLLPQYSQETFIQIAQLLDLCILAIDSLEFQYRILTAAALCHFTSIEVVKKASGLEWDSISECVDWMVPFVNVVKSTSPVKLKTFKKIPMEDRHNIQTHTNYLAMLEEVNYINTFRKGGQLSPVCNGGIMT,not soluble
5,MGSDKIHHHHHHMHGNADVKFGNESVFDLARGSSTNDELLNICMIRSGFKKFEEEKEIQNTDGFFIADTSVYIKLGNRLGYLTKDRLLASKSVYNELSERTKLTQMGKEIIVFYLGMYSYRHLHKSPPVSEYNKSGDIPLIEETRKIKENIPEKVTLITADRQLKQRARTLGVNVIFLNTLKSDSGNMSELLLCASNRREYMEKYDYARRDLTITINDKEVIKIESDPTKEGFSRIKTLNKEFNYAKLIEKLYEMI,not soluble
6,MELLQGKTFVVMGVANQRSIAWGIARSLHNAGAKLIFTYAGERLERNVRELADTLEGQESLVLPCDVTNDEELTACFETIKQEVGTIHGVAHCIAFANRDDLKGEFVDTSRDGFLLAQNISAFSLTAVAREAKKVMTEGGNILTLTYLGGERVVKNYNVMGVAKASLEASVKYLANDLGQHGIRVNAISAGPIRTLSAKGVGDFNSILREIEERAPLRRTTTQEEVGDTAVFLFSDLARGVTGENIHVDSGYHILG,soluble
7,MAERELYIGVMSGTSLDGVDTALVALQDDNIELLAHHDYPIPADLKQRLLNVCIGQPTTLIAMGELEHDLGHLFSDAVLALLQHSGYRAEHIRAIGCHGQTVFHQPTGTKPFTMQIGDANIIATRTGITTVADFRRKDVALGGQGAPLVPAFHRTIFHAEQSTVVVLNIGGIANISVLKPNGEVVGYDTGPGNMLMDSWCQKERNQPYDKDALWAKQGSVNAALLSHLKQDHYFALPAPKSTGRELFNLPWLETQLATFSVDATDVQRTLCEFTAQTIVEQVAPFAEGPQPQLLVCGGGAQNPLLMERLQALLPSWQVAPTTQMGVDGDNMEAMAFAWLAQRRIHGLPSNLPAVTGASRLASLGVIYYPD,not soluble
8,MARGCDLCFPGRKAVVFVTGLCDDSCFYCPVSRAKLGRDVFYVNEVPVASVEEAVAEVLRTGASGASLTGGDPLVALHRTLDVARALKSELGRGFHIHLYTSGRRMTPEVARALWEAGVDEVRIHPTERSLLSRVGMVKRYTGMSVGVEMPIAPGLEELAIEAVKTVEAVGGDFVNLNEMEIVEPNARALLARGYTESGERPFTVRGALEAVLRVLEWAAENSSVPVHFCPASFKDSIQTGNRLRSSAARDAYWYEEPTPHGTLTWGEVRGGSPPPGLGEERGGRIMLPPRADLLETVVRMYGGEAYIVEAHPTPSRTPIVSERRIA,not soluble
9,MRQIKVVLIGGGTGLSVMARGLREFPIDITAIVTVADNGGSTGKIRDEMDIPAPGDIRNVIAALSDSESVLSQLFQYRFEENQISGHSLGNLLIAGMTNITNDFGHAIKALSKILNIKGRVIPSTNTSVQLNAVMEDGEIVFGETNIPKKHKKIDRVFLEPNDVQPMEEAIDALREADLIVLGPGSLYTSVISNLCVNGISDALIHSDAPKLYVSNVMTQPGETDGYSVKDHIDAIHRQAGQPFIDYVICSTQTFNAQVLKKYEEKHSKPVEVNKAELEKESINVKTSSNLVEISENHLVRHNTKVLSTMIYDIALELISTIPFVPSDKRK,not soluble
10,GSQDVKCSLGYFPCGNITKCLPQLLHCNGVDDCGNQADEDNCG,soluble
11,NSDALVSIQTSKLPKTAYTATDFIKTAQYKYNHIVSNTVYELDLFQNAVSYADFAVLELELNLANNRDQQIFDSFINPAVTAYEKLGNSLGLFSNLQLDQYVDDTHYLLGYPLLKREKTSY,not soluble
12,MGSDKIHHHHHHMYRILVINPGSSSTKVAVFEDEKKIAEKNVSHSVEELKKFKRSMDQEPLRRKAVEDFIDEVGYRIEDFSAIAARGGVLEPVPGGTYVVNEYMVDYLINRSPVDHVSNLAAVIGYKLGKPHGIPCFVVDPVSVDEMCDEARFSGIPEIERKSYSHALNIKAVLRKVSREMGKTPEEVKIVVAHLGSGISVCACKNGKIIDVNNANDEGPFSIERTGELPVGDVVKTAYSSKHSAAELKEEFTRKGGLLAYLGTKNLKKALDSMETSRKAKLVVEAMAYQIAKEIGGMCAVLGEKPDAIVITGGMAHEIRFVRMITDYIEKFGKVEVIPGELEMEALALGVLRVLRGEEKAMDYRSVVE,not soluble
13,MRHILSVLIENESGAMSRVVGLFSARDYNIDSLAVAPTEDKTLSRMTIVTHGDEQVIEQITKQLNKLIEVIKVVDLNESRFVERELMLVKVRAAGKDRDEFLRLTEIYRGSIIDVTDRSYTIEITGSTDKLDSFLETVGRAQILETVRTGAAGIGRGERILKI,not soluble
14,MKILKDTVLFGLFASYADGVRNGEEKLSAAYDDFATLLATLPTDGTNICAQLRRLFYTKIELRGIQETVSTNGMERHVLFDVYIGKALALLDAEEQMMKEVLRHGGTEAMGLKEEAVCRNGKKGSVTLTWNGTDSDLIELVAALMAAGVIGTAEGRELKVVDVIRVFEEVFHLKINALYTKRGKVFDRCTDTTPFIDSLRRSYNRMLDARLA,not soluble
15,MAPAKKVETRSTDGETRRHIMLIMLKEGPVTATQLGQQLNLSATGIRRHLDILLDEGFAEISSVRRVACEKSRGRPAKAFKLTASGRSQFGHEYDSLAAEALATLKESGGEAAVRAFARKRVEKILADVHVPDNIDDNQLAEVATQLVEAFSNNGYAATINNAANGVQICQHHCPISGVAADFPELCEAEHEMIAKILGHHVQPLASIADGHDICTTNIPITPILTPRKNTPTERSGS,not soluble
16,MSLEALLSEDVKIIASALKAAIDKDRKSTSKREAETGIRYYNHENDIMNNRIFYVDDEGVLREDKYASNVRIPHGFFPEIVDQKTQYLLSNPVEYETENEELKEYLAEYYNSEFQVVLQELVEGSSQKGFEYVYARTNAEDRLCFQVADSLNVFGVYNEYNELQRICRHYITEIEKDGETVDIHHAEVWTDQNVYFFVAEDNKDYELDEAEPINPRPHVLAVDSDNESLLQRSYGQIPFYRLSNNKQETTDLKSIKALIDDYDLMNCFLSNNLQDFAEAIYVVSGFQGDDLSKLRQNVKSKKVVGTGSDGGLDVKTVTIPTEGRKTKMEIDKENIYKFGMAFDSTQVGDGNITNIVIKARYTLLNMKANKTEARLRALLEWMNKLVIDDINRRYTKAFDPTEVSFTFTREVMVNETDIVNNEKTEAETRKIILESILQVAPRLDDDNVLRLICEQFDLDWEDVKEALEEAEYTQGLTDNTDEEETAEGHHHHHH,soluble
17,MSDVQSSLTGTWYNELNSKMELTANKDGTLTGKYLSKVGDVYVPYPLSGRYNLQPPAGQGVALGWAVSWENSKIHSATTWSGQFFSESSPVILTQWLLSSSTARGDVWESTLVGNDSFTKTAPTEQQIAHAQLHCRAPRLK,soluble
18,MGSDKIHHHHHHMTKEINPFIVTGKIEPEYFCDRVKESERLVKSLTNGNNLVIISPRRMGKTGLIRFCYEKPEIKEEYYTFFIDILHTSSLREFTYLLGKEIYETLLPRSKKMASLFIQTVKSINGKFGFDPLTNLPTFNLELGDIDRPEYTLEEIFQCLIAADKPCIVAIDEFQQIAKYPEKNIEALLRTHIQTIENSNFIFAGSERHMMQEMFLSSSRPFYHSADILELKAIVPEIYIPFIADHFQKRKRHIEIENIEKVYRLFKGHTFYIQKTFNEAFADTPKGKECTLEIIKTAIDNLIAYNDTIFREILSNIPEKQKELLYAIAKVGEAENVTSAKFIKRYSLTSASSVQSATKKLLEKDIITEINKVYSVTDKFFGMWINTIYGNKYTL,not soluble
19,MTRPVTLSEPHFSQHTLNKYASLMAQGNGYLGLRASHEEDYTRQTRGMYLAGLYHRAGKGEINELVNLPDILGMEIAINGEVFSLSREAWQRELDFASGELRRSVVWRTSNGAGYTIASRRFVSADQLPLIALEITIMPLDADASVLISTGIDATQTNHGRQHLDETQVRVFGQHLMQGIYTTQDGRSDVAISCCCQVSGDVQQCYTAKERRLLQHTSTQLHAGETVTLQKLVWIDWRDDRQAALDEWGSVSLRQLEMCAQQSYDQHLAASTENWRQWWQKRRITVNGGDAHDQQALDYALYHLRIMTPAHGERSSIAAKGLTGEGYKGHVFWDTEVFLLPFHLFSDPTVARSLLRYRWHNLPGAQEKARRNGWQGALFPWESARSGEEETPEFAAINIRTGLRQKVASAQAEHHLVADIAWAVIQYWQTTGDESFIAHEGMALLLETAKFWISRAVRVNDRLEIHDVIGPDEYTEHVNNNAFTSYMVYYNVQQALSIARQFGCSDDAFIHRAEMFLKELRLPEIQPDGVLPQDDSFMTKPAINLAKYKAAAGKQTILLDYSRAEVNEMQILKQADVVMLNYMLPEQFSSASCLANLQFYEPRTIHDSSLSKAIHGIVAARCGLLTQSYQFWREGTEIDLGADPHSCDDGIHAAATGAIWLGAIQGFAGVSVRDGELHLNPALLEQWQQLSFPLFWQGCELQVTLDAQRIAIRTSAPVSLRLDGQLISVAEESVFCLGDFILPFNGTATTHQEDE,not soluble
20,MRMAQVVLENVTKVYENKVVAVKNANLVVEDKEFVVLLGPSGCGKTTTLRMIAGLEEITDGKIYIDGKVVNDVEPKDRDIAMVFQNYALYPHMTVYENMAFGLKLRKYPKDEIDRRVREAAKILGIENLLDRKPRQLSGGQRQRVAVGRAIVRNPKVFLFDEPLSNLDAKLRVQMRSELKKLHHRLQATIIYVTHDQVEAMTMADKIVVMKDGEIQQIGTPHEIYNSPANVFVAGFIGSPPMNFVNARVVRGEGGLWIQASGFKVKVPKEFEDKLANYIDKEIIFGIRPEDIYDKLFALAPSPENTITGVVDVVEPLGSETILHVKVGDDLIVASVNPRTQAKEEQKIDLVLDMTRMHAFDKETEKAII,soluble
